Our source for the percent of input detected in the pull-down values is PMC2622761.

This assay has as its target GST-PfMTIP (P. falciparum (3D7)) (UniProt Q8I4W8). Description: pull-down; GST or GST-MTIP coupled to glutathione-Sepharose 4B; 25 µg His-tagged Rab protein incubated overnight at 4°C; four washes in PBS (0.1% Triton X-100); detected by anti-His immunoblot.

Take PfRab11A-His (natural protein): the percent of input detected in the pull-down was 5%.
